Patent publication US20090136503A1 (BEIJING COTIMES BIOTECH, published 2009)

How the values were obtained:
[1] = target: T1, TRAIL-R4-Fc fusion protein (human, UniProt Q9UBN6 56-211); assay: ELISA: plate coated with TRAIL-R4-Fc at 1 µg/ml, HRP goat anti-human kappa, TMB
T1 construct: The origin of the protein is not described; also called TRAIL-R4-Fc fusion antigen; not shown: human IgG1 Fc
T1 sequence (looked up): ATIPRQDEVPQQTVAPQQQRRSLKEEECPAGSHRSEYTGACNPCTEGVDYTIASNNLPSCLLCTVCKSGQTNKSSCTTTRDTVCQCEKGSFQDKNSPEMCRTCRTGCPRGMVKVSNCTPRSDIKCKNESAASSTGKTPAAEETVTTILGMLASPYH

[2] = target: T2, TRAIL-R3-Fc fusion protein (human, UniProt O14798 26-221, limits assumed); assay: ELISA: plate coated with TRAIL-R3-Fc at 1 µg/ml, HRP goat anti-human kappa, TMB
T2 construct: The origin of the protein is not described; also called TRAIL-R3-Fc fusion antigen; not shown: human IgG1 Fc
T2 sequence (looked up): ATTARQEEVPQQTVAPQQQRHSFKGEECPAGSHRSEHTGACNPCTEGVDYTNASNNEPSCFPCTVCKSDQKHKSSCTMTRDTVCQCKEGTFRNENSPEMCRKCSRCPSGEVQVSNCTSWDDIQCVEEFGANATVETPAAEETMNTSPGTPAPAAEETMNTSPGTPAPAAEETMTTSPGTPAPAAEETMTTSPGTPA

[3] = target: T3, BSA (bovine serum albumin), negative control (bovine, UniProt P02769 25-607); assay: ELISA: plate coated with BSA (control) at 1 µg/ml, HRP goat anti-human kappa, TMB
T3 sequence (P02769 25-607 limits assumed): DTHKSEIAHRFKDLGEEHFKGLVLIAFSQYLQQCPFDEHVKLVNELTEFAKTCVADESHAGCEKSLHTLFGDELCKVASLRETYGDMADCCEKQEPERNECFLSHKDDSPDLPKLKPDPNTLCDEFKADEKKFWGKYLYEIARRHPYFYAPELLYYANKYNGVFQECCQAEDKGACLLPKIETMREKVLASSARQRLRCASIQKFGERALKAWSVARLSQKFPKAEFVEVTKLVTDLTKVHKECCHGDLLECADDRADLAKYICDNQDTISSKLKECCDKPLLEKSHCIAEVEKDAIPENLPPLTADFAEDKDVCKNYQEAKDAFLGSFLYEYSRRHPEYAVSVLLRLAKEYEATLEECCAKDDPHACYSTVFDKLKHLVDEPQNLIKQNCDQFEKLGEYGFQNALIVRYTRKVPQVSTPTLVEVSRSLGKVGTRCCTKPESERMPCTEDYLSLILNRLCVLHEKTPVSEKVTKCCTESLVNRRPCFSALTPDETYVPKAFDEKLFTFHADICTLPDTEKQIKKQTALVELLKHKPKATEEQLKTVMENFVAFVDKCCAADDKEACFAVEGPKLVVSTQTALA

[4] = target: T4, TRAIL-R2 on the surface of human tumor cells (human, UniProt O14763 56-440); assay: cell-based or functional assay
[5] = target: T5, TRAIL-R1-Fc fusion protein (human, UniProt O00220 24-239); assay: ELISA: plate coated with TRAIL-R1-Fc at 1 µg/ml, HRP goat anti-human kappa, TMB
T5 construct: extracellular domain; also called TRAIL-R1-Fc fusion antigen; not shown: Fc portion of human IgG1

[6] = target: T6, Heterodimeric TRAIL-R1-Fc/TRAIL-R2-Fc fusion protein (human, UniProt O00220 24-239; O14763 56-210); assay: ELISA: plate coated with TRAIL-R1/TRAIL-R2-Fc heterodimer at 1 µg/ml, HRP goat anti-human kappa, TMB
T6 construct: extracellular domain; also called TRAIL-R1/TRAIL-R2 dimer; TRAIL-R1/TRAIL-R2 heterodimer antigen; not shown: Fc portion of human IgG1

[7] = target: T4, TRAIL-R2 on the surface of human tumor …; assay: flow cytometry on Jurkat cells (said to express TRAIL-R2 only, not TRAIL-R1), PE goat anti-mouse IgG1
[8] = target: T3, BSA (bovine serum albumin), negative …; assay: ELISA: plate coated with BSA (control) at 1 µg/ml, HRP goat anti-mouse IgG, TMB
[9] = target: T2, TRAIL-R3-Fc fusion protein; assay: ELISA: plate coated with TRAIL-R3-Fc at 1 µg/ml, HRP goat anti-mouse IgG, TMB
[10] = target: TRAIL-R1 on the surface of human tumor cells (human, UniProt O00220 24-468); assay: cell-based or functional assay
[11] = target: Human IgG1 (control antigen) (human); assay: ELISA; human IgG1 captured on goat anti-human IgG, antibody at 2 µg/ml
[12] = target: T1, TRAIL-R4-Fc fusion protein; assay: ELISA: plate coated with TRAIL-R4-Fc at 1 µg/ml, HRP goat anti-mouse IgG, TMB
[13] = target: T2, TRAIL-R3-Fc fusion protein; assay: ELISA: plate coated with TRAIL-R3-Fc at 1 µg/ml, HRP goat anti-human kappa, TMB; remark: listed apart in the source
[14] = target: T1, TRAIL-R4-Fc fusion protein; assay: ELISA: plate coated with TRAIL-R4-Fc at 1 µg/ml, HRP goat anti-human kappa, TMB; remark: listed apart in the source
[15] = target: T3, BSA (bovine serum albumin), negative …; assay: ELISA: plate coated with BSA (control) at 1 µg/ml, HRP goat anti-human kappa, TMB; remark: listed apart in the source

B1: Human chimeric CTB006 (mouse-human chimeric antibody) (antibody, V domains shown)
VH: EVQLQQSGPELVKPGASVRMSCKASGYTFTSYFIHWVKQRPGQGLEWIGWIYPGNVNTKYSEKFKGKATLTADKSSSTAYMQFSSLTSEDSAVYFCARGEAGYFDYWGQGTTLTVSS
VL: DIVMTQSHKFMSTSVGDRVSITCKASQDVSTAVAWYQQKPGQSPRLLIYWASTRHTGVPDRFTGSGSGTDYTLTISSVQAEDQALYYCQQHYRTPWTFGGGTKLEIKR
notes: Human IgG1 / kappa constant regions, made in CHO cells; also called hCTB006; HuCTB006
binding result [1]: no binding (tested: 1000 ng/ml)
binding result [2]: no binding (tested: 1000 ng/ml)
binding result [3]: no binding (tested: 1000 ng/ml)
IC50 (ng/ml), killing of Carov 3 cells, ATPLite cell viability [4]: 18.5 ng/mL
IC50 (ng/ml), killing of Colo205 cells, ATPLite cell viability [4]: 6.2 ng/mL
IC50 (ng/ml), killing of Du145 cells, ATPLite cell viability [4]: 52.3 ng/mL
IC50 (ng/ml), killing of H-2122 cells, ATPLite cell viability [4]: 42.1 ng/mL
IC50 (ng/ml), killing of MDA231 cells, ATPLite cell viability [4]: 1.5 ng/mL
IC50 (ng/ml), killing of MIAcap cells, ATPLite cell viability [4]: 10.1 ng/mL
binding result [5]: no binding (tested: 1000 ng/ml)
binding result [6]: binds

B2: CTB007 murine monoclonal antibody against TRAIL-R1 (hybridoma CGMCC 1733) (antibody, V domains shown)
VH: EVQLQQSGAELVKPGASVKLSCTASGFNIKDTYMHWVKQRPEQGLEWIGRIDPANGNTKYDPKFQGKATITADTSSNTAYLQLSSLTSEDTAVYYCAYYYVSNAWFTYWGQGTLVTVSA
VL: DIQMTQSPASLSVSVGETVTITCRASENIYSNLEWYQQKQGKSPQLLVYAATNLADGVPSRFSGSGSGTQYSLKINSLQSEDFGSYYCQHFWGTWTFGGGTKLEIK
notes: Murine monoclonal antibody; also called Anti-TRAIL-R1 (CTB007); CTB007-HRP
binding result [7]: no binding
binding result [8]: no binding (tested: 1000 ng/ml)
binding result [9]: no binding (tested: 1000 ng/ml)
IC50 (ng/ml), killing of Carov 3 cells, ATPLite cell viability [10]: 29.5 ng/mL
IC50 (ng/ml), killing of Colo205 cells, ATPLite cell viability [10]: 6.2 ng/mL
IC50 (ng/ml), killing of Du145 cells, ATPLite cell viability [10]: 31.2 ng/mL
IC50 (ng/ml), killing of H-2122 cells, ATPLite cell viability [10]: 25.4 ng/mL
IC50 (ng/ml), killing of MDA231 cells, ATPLite cell viability [10]: 8.2 ng/mL
IC50 (ng/ml), killing of MIAcap cells, ATPLite cell viability [10]: 9.5 ng/mL
OD 450 nm/650 nm [11]: 0.026 OD
binding result [12]: no binding (tested: 1000 ng/ml)

B3: Human chimeric CTB007 (mouse-human chimeric antibody) (antibody, V domains shown)
VH: B2 VH
VL: DIQMTQSPASLSVSVGETVTITCRASENIYSNLEWYQQKQGKSPQLLVYAATNLADGVPSRFSGSGSGTQYSLKINSLQSEDFGSYYCQHFWGTWTFGGGTKLEIKR
notes: Human IgG1 / kappa constant regions, made in CHO cells; also called hCTB007; HuCTB007
binding result [13]: no binding (tested: 1000 ng/ml)
binding result [14]: no binding (tested: 1000 ng/ml)
IC50 (ng/ml), killing of Carov 3 cells, ATPLite cell viability [10]: 31.6 ng/mL
IC50 (ng/ml), killing of Colo205 cells, ATPLite cell viability [10]: 5.9 ng/mL
IC50 (ng/ml), killing of Du145 cells, ATPLite cell viability [10]: 28.6 ng/mL
IC50 (ng/ml), killing of H-2122 cells, ATPLite cell viability [10]: 22.5 ng/mL
IC50 (ng/ml), killing of MDA231 cells, ATPLite cell viability [10]: 7.5 ng/mL
IC50 (ng/ml), killing of MIAcap cells, ATPLite cell viability [10]: 8.8 ng/mL
binding result [15]: no binding (tested: 1000 ng/ml)
